Our source for the Kd values is patent US20090226525.

Holding throughout (assay): EMSA
Background: In EMSA bound probe runs differently from free probe, usually more slowly.

Data set [1] addresses HBV core protein K11 mutant (truncated core, C-terminal 11-lysine tail, E77C) (Hepatitis B virus) (UniProt P03149). The settings on record: phosphate (P) at end of the sequence; 20 mM NaHCO3 pH 9.5, room temperature, agarose gel.
For data set [2], the target named is HBV core protein K9 mutant (truncated core, C-terminal 9-lysine tail, E77C) (Hepatitis B virus) (UniProt P03149). To be noted: phosphate (P) at end of the sequence; 20 mM Tris pH 7.7 (p269 states 10 mM Tris), room temperature, agarose gel.
Data set [3] deals with HBV core protein K7 mutant (truncated core, C-terminal 7-lysine tail, E77C) (Hepatitis B virus) (UniProt P03149). To be noted: phosphate (P) at end of the sequence; 20 mM NaHCO3 pH 9.5, room temperature, agarose gel.

“GGAAAGACUGUUCCAAAAAUUUUCCUUUCUGACAAGGUUUUU / AAAAACCUUGUCAGAAAGGAAAAUUUUUGGAACAGUCUUUCC [siGLO Cyclophilin B siRNA]”: the Kd (commonly a measure of binding affinity in units of concentration) in data set [1] stood at 69 nM; in data set [2] it was 115 nM; in data set [3] it was 370 nM.
